This note sets out measurements from patent US20190134153A1, “IMMUNOMODULATORY EFFECT OF INHALED KINASE INHIBITOR PEPTIDES IN LUNG” (MOERAE MATRIX, INC., priority 2017, published 2019).

Targets include HIPK3(h) (Homo sapiens, UniProt Q9H422); Src(T341M)(h) (Homo sapiens, UniProt P12931, T341M); Syk(h) (Homo sapiens, UniProt P43405); Abl (H396P) (h) (Homo sapiens, UniProt P00519, H396P); Abl (M351T)(h) (Homo sapiens, UniProt P00519, M351T); EGFR(T790M)(h) (Homo sapiens, UniProt P00533, T790M); Lck(h) (Homo sapiens, UniProt P06239); PAK2(h) (Homo sapiens, UniProt Q13177); CDK3/cyclinE(h) (Homo sapiens, UniProt Q00526); cKit(V654A)(h) (Homo sapiens, UniProt P10721, V654A); MRCKα(h) (Homo sapiens, UniProt Q5VT25); Met(Y1248C)(h) (Homo sapiens, UniProt P08581, Y1230C); CDK5/p25(h) (Homo sapiens, UniProt Q00535); Arg(h) (Homo sapiens, UniProt P42684); cKit(V560G)(h) (Homo sapiens, UniProt P10721, V560G); PAR-1Bα(h) (Homo sapiens, UniProt Q7KZI7); PDGFRα(D842V)(h) (Homo sapiens, UniProt P16234, D842V); IGF-1R(h) (Homo sapiens, UniProt P08069); GRK5(h) (Homo sapiens, UniProt P34947); PAK3(h) (Homo sapiens, UniProt O75914); MAPK1(h) (Homo sapiens, UniProt P27361); CK1γ3(h) (Homo sapiens, UniProt Q9Y6M4); CK2α2(h) (Homo sapiens, UniProt P19784); Tie2(R849W)(h) (Homo sapiens, UniProt Q02763, R849W); JNK1α1(h) (Homo sapiens, UniProt P45983).

Test in all cases: Kinase Profiling Assay
Type in all cases: biochemical
What all share (settings): 100 μM

The target in the next assay is T1, ULK3(h) (Homo sapiens, UniProt Q6PHR2).
T1 sequence (Q6PHR2 1-472): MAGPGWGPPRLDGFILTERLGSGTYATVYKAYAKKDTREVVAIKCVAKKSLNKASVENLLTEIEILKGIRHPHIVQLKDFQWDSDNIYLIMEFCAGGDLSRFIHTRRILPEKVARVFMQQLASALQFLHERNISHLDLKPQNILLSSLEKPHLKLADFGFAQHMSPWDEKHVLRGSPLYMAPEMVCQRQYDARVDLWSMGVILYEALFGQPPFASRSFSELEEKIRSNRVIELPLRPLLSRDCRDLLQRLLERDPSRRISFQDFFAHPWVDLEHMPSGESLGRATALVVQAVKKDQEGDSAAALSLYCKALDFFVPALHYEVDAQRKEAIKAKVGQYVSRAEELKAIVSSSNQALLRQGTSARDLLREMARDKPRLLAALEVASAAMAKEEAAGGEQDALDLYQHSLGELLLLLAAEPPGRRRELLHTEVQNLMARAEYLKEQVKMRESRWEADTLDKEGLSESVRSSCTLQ

The next assay deals with T2, MKK7β(h) (Homo sapiens, UniProt O14733).
T2 sequence (O14733 1-419): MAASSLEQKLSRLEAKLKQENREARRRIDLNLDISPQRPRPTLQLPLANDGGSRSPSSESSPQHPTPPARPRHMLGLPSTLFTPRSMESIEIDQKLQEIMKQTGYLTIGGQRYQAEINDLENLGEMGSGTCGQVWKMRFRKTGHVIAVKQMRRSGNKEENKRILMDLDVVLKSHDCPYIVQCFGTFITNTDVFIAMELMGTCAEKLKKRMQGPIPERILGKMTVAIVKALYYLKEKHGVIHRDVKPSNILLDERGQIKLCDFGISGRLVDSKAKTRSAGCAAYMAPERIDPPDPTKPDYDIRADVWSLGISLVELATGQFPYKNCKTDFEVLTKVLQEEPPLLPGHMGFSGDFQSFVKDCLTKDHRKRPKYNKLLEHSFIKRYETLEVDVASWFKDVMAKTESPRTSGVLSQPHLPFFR

PAK2(h), sequence (Q13177 whole entry): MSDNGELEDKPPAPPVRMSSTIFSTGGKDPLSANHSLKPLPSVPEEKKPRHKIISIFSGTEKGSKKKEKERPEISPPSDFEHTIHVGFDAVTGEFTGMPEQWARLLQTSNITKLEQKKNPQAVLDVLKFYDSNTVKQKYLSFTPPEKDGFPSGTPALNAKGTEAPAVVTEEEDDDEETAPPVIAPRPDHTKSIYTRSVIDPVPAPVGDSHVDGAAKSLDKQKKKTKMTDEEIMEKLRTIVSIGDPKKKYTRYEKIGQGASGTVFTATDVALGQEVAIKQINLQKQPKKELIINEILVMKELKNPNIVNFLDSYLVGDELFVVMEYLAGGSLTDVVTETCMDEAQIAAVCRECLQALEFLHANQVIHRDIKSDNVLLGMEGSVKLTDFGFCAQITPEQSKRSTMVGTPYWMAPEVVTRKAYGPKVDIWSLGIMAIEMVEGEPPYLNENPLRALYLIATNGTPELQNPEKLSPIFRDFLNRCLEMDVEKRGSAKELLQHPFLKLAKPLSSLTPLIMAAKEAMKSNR
CDK5/p25(h), sequence (Q00535 whole entry): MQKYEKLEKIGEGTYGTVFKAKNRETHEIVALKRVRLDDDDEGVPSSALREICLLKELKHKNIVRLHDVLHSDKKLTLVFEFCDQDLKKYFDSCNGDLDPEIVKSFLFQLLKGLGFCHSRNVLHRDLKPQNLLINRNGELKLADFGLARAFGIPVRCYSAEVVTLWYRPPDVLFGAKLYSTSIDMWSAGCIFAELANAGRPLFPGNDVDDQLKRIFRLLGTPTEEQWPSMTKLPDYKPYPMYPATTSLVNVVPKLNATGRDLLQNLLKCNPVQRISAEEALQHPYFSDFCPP
CDK5/p25(h), sequence (Q15078 99-307 partner limits assumed): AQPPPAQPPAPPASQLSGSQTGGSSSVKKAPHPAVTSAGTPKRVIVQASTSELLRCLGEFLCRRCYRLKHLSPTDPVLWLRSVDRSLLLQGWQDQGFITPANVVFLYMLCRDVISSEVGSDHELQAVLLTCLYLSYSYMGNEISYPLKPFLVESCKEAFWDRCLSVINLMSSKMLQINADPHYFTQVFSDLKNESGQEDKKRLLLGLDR
Arg(h), sequence (P42684 whole entry): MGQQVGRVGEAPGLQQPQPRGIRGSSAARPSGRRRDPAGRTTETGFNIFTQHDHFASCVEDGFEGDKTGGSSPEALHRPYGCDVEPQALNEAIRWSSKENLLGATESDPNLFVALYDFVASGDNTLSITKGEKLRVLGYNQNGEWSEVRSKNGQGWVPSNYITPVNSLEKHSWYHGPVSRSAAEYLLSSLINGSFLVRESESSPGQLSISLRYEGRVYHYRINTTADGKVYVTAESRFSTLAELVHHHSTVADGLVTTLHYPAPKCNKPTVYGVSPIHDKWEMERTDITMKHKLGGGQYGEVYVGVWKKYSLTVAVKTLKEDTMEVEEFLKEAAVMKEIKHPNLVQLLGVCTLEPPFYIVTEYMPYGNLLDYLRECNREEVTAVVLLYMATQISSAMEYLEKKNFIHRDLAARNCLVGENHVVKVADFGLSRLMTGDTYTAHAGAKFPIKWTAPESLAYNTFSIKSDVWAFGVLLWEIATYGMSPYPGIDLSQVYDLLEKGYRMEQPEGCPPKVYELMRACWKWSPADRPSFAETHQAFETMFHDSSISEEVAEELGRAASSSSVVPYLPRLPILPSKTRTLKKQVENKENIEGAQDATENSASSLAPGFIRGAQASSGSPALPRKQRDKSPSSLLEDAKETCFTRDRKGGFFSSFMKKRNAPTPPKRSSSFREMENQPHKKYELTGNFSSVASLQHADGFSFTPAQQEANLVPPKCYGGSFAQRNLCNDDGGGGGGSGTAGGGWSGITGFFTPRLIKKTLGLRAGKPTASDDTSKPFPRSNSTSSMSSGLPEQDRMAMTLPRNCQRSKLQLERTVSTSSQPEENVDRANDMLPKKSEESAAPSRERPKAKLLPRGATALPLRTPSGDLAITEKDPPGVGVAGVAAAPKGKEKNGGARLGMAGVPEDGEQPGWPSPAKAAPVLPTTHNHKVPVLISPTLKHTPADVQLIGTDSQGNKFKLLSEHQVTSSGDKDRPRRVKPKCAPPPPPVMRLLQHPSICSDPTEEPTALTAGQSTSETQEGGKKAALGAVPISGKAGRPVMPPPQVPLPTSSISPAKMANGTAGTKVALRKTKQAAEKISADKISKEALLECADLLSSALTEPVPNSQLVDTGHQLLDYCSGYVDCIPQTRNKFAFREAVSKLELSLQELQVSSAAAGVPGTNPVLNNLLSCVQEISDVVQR
CDK3/cyclinE(h), sequence (Q00526 whole entry): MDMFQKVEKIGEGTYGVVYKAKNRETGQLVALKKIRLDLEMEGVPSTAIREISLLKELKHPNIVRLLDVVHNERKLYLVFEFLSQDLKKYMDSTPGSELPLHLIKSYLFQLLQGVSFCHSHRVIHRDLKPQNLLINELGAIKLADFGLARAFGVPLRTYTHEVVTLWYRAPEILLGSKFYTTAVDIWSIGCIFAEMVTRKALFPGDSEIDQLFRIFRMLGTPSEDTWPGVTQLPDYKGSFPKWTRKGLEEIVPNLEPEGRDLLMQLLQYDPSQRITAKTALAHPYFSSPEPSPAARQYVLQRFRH
CDK3/cyclinE(h), sequence (P24864 whole entry partner): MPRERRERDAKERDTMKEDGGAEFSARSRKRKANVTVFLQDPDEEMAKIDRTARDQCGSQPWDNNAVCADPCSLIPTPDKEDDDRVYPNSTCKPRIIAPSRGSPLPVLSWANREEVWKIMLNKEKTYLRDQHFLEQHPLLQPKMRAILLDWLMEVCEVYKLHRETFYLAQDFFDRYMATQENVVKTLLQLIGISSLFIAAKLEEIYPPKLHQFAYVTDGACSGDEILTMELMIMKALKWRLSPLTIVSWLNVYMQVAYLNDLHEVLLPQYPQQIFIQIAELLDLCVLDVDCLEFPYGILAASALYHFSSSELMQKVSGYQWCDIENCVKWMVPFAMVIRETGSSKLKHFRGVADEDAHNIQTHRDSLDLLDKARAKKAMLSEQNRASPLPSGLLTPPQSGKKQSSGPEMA
PAK3(h), sequence (O75914 whole entry): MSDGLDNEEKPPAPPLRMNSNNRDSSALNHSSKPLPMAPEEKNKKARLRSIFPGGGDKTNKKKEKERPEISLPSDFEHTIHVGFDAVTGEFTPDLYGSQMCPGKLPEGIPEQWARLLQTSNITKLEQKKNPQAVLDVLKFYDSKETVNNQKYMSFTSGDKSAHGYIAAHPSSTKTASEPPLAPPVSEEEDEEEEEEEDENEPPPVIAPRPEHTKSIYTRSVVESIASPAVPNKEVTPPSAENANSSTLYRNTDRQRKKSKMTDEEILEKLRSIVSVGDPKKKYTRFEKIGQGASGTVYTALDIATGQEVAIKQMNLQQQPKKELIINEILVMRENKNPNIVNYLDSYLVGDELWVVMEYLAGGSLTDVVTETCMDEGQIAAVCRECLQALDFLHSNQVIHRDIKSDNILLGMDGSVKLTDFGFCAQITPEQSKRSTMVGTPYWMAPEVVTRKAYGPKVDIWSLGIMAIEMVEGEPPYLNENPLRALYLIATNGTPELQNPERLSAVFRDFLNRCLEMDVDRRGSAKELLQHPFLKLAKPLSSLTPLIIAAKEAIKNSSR
GRK5(h), sequence (P34947 whole entry): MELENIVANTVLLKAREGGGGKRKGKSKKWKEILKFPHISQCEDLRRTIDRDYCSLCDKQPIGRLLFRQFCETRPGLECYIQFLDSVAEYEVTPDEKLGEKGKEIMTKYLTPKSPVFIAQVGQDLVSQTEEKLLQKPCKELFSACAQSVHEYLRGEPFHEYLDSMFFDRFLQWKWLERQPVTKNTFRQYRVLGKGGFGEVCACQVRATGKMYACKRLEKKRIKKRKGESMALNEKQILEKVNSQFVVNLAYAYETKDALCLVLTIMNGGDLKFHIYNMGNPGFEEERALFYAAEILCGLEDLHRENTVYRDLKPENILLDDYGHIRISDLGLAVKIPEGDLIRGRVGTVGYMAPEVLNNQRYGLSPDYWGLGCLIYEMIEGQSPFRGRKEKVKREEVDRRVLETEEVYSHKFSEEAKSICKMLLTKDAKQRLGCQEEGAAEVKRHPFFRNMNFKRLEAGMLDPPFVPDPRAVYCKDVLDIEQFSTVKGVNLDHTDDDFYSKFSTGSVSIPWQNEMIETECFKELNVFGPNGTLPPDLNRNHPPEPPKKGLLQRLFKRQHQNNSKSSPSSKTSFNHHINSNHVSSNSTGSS
JNK1α1(h), sequence (P45983 1-384 isoform P45983-2): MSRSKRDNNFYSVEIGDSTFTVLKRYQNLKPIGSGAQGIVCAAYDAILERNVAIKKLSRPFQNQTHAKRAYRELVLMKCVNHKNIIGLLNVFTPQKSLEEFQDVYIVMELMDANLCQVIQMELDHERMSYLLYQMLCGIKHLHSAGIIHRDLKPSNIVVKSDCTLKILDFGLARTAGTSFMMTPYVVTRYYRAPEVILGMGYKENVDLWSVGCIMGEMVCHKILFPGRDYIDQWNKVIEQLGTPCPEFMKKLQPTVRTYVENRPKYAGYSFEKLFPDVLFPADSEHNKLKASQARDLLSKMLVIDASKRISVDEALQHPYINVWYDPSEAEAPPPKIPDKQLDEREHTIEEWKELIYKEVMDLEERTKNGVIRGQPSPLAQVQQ
Lck(h), sequence (P06239 whole entry): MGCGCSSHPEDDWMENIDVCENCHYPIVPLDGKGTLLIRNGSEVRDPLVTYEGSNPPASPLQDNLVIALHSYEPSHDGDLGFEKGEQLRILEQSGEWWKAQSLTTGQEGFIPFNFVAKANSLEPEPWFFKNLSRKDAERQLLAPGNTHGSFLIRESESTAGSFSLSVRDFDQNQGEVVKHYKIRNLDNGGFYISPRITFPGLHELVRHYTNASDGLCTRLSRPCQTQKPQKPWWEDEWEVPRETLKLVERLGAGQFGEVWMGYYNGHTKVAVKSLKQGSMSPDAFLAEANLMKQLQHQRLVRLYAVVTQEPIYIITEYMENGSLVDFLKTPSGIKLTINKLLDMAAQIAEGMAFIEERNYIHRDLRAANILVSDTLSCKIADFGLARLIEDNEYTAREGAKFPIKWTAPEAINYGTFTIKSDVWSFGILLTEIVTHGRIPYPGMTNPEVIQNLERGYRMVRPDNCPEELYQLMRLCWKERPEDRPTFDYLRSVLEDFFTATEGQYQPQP

With HRRIKAWLKKIKALARQLGVAA [MMI-0500], the “% activity” value came to 85% with HIPK3(h); 59% in the assay with Src(T341M)(h); 5% in the assay with Syk(h); 51% with Abl (H396P) (h); 61% in the assay with Abl (M351T)(h); 70% with EGFR(T790M)(h). The “% activity” value in the assay with Lck(h) stood at 359%; in the assay with PAK2(h), 44%; with CDK3/cyclinE(h), 8%; in the assay with cKit(V654A)(h), 223%; in the assay with ULK3(h), 177%; with MRCKα(h), 5%. In addition, the “% activity” value in the assay with Met(Y1248C)(h) is 73%; with CDK5/p25(h), 66%; with Arg(h), 22%; in the assay with cKit(V560G)(h), 198%; with PAR-1Bα(h) it was 97%; with PDGFRα(D842V)(h), 170%.

For the sequence YARAAARQARAKALNRQLGVA [MMI-0200], the “% activity” value with IGF-1R(h) was found to be 49%; with Src(T341M)(h) it was 56%; with Syk(h), 36%; with GRK5(h) it was 135%; with PAK3(h) it was 50%; in the assay with PAK2(h) it was 69%. In addition, the “% activity” value with ULK3(h) was 164%; with MAPK1(h) it was 97%; in the assay with CK1γ3(h) it was 96%; with CK2α2(h), 88%; with Met(Y1248C)(h), 141%; with CDK5/p25(h), 97%. Further, the “% activity” value is 82% in the assay with Arg(h), 89% with Tie2(R849W)(h) and 110% with PAR-1Bα(h).

As for KAFAKLAARLYRKALARQLGVAA [MMI-0400], the “% activity” value with IGF-1R(h) is reported as 90%; with Src(T341M)(h), 76%; with Syk(h) it was 9%; in the assay with GRK5(h), 131%; with PAK2(h) it was 59%; with CDK3/cyclinE(h), 92%. The “% activity” value is 150% in the assay with cKit(V654A)(h); 147% in the assay with ULK3(h); 97% with MRCKα(h); 100% with MAPK1(h); 98% with JNK1α1(h); 96% with CK2α2(h). Also, the “% activity” value with Met(Y1248C)(h) is 36%; in the assay with CDK5/p25(h), 92%; in the assay with Arg(h), 84%; with Tie2(R849W)(h) it was 108%; in the assay with MKK7β(h), 94%; with cKit(V560G)(h), 124%. Further, the “% activity” value with PDGFRα(D842V)(h) came to 118%.

Turning to FAKLAARLYRKALARQLGVAA [MMI-0300], the “% activity” value with HIPK3(h) stood at 93%; with Src(T341M)(h), 70%; with Syk(h) it was 24%; with Abl (H396P) (h), 101%; in the assay with Abl (M351T)(h), 90%; in the assay with EGFR(T790M)(h) it was 100%. Also, the “% activity” value with PAK3(h) was 140%; with Lck(h), −2%; with PAK2(h), 65%; with CDK3/cyclinE(h), 94%; in the assay with cKit(V654A)(h), 134%; with ULK3(h), 167%. In addition, the “% activity” value is listed as 97% with JNK1α1(h); 125% with CK1γ3(h); 84% with Met(Y1248C)(h); 89% with CDK5/p25(h); 72% with Arg(h); 100% with MKK7β(h).
